Results taken from patent US8440430, “Modified dicer polypeptide and methods of use thereof” (The Regents of the University of California).

B1: pre-hlet-7 hairpin RNA (ssRNA)
RNA: UGAGGUAGUAGGUUGUAUAGUUUUAGGGUCACACCCACCACUGGGAGAUAACUAUACAAUCUACUGUCUUACC
B2: 37ab duplex RNA (dsRNA)
RNA 1: UGAGGUAGUAGGUUGUAUAGUUUGAAAGUUCACGAUU
RNA 2: UCGUGAACUUUCAAACUAUACAACCUACUACCUCAUU

What was measured:
[1] = biological target: ΔDUF human Dicer (lacks DUF283) (Homo sapiens, UniProt Q9UPY3 SEQ:1-1922, del630-709); test: filter; within three-fold of full-length; 5 mM EDTA; exact Kd only in figure; conditions: tags: N-terminal His6 removed by site-specific protease, baculovirus/Sf9
Method: (§1) After dried, the bound (on Protran) or free (on Nytran) RNAs were detected and quantified with Phosphoimager (GE Healthcare). Percentage of bound RNAs was calculated by 100 multiplied by the ratio of radioactivity (volumes) detected on the Protran membrane over the total input volumes (radioactivity). The bound RNAs (%) (Y-axle) were plotted against protein concentrations (X-axle). K_d was determined by global fitting to the equation of kobsd = (kmax ×[Dicer])(K_{1/2} + [Dicer])^-1, here $kobsd$ is the observed rate constant at a particular protein concentration, $kmax$ is the maximal rate constant with saturating protein, and K_{1/2} (or K_d) is the protein concentration that provides half the maximal rate. Curve fitting was conducted with KleidaGraph (Synery Software).
(§2) RNA. […] These values are similar to those measured previously (Provost et al, 2002; Vermeulen et al, 2005). […] The protein lacking both the DExD/H-box domain and the dsRBD (2DD) bound ~3-4 fold more weakly to either substrate relative to full-length Dicer (FIG. 3A-C). It is possible that this severely truncated protein is generally destabilized, or that the DExD/H-box domain plays a small but measurable role in substrate binding.

[2] = biological target: T1, hWalker human Dicer (K70A) (Homo sapiens, UniProt Q9UPY3 SEQ:1-1922); test: as above; conditions: tags: N-terminal His6 removed by site-specific protease, baculovirus/Sf9
T1 chain: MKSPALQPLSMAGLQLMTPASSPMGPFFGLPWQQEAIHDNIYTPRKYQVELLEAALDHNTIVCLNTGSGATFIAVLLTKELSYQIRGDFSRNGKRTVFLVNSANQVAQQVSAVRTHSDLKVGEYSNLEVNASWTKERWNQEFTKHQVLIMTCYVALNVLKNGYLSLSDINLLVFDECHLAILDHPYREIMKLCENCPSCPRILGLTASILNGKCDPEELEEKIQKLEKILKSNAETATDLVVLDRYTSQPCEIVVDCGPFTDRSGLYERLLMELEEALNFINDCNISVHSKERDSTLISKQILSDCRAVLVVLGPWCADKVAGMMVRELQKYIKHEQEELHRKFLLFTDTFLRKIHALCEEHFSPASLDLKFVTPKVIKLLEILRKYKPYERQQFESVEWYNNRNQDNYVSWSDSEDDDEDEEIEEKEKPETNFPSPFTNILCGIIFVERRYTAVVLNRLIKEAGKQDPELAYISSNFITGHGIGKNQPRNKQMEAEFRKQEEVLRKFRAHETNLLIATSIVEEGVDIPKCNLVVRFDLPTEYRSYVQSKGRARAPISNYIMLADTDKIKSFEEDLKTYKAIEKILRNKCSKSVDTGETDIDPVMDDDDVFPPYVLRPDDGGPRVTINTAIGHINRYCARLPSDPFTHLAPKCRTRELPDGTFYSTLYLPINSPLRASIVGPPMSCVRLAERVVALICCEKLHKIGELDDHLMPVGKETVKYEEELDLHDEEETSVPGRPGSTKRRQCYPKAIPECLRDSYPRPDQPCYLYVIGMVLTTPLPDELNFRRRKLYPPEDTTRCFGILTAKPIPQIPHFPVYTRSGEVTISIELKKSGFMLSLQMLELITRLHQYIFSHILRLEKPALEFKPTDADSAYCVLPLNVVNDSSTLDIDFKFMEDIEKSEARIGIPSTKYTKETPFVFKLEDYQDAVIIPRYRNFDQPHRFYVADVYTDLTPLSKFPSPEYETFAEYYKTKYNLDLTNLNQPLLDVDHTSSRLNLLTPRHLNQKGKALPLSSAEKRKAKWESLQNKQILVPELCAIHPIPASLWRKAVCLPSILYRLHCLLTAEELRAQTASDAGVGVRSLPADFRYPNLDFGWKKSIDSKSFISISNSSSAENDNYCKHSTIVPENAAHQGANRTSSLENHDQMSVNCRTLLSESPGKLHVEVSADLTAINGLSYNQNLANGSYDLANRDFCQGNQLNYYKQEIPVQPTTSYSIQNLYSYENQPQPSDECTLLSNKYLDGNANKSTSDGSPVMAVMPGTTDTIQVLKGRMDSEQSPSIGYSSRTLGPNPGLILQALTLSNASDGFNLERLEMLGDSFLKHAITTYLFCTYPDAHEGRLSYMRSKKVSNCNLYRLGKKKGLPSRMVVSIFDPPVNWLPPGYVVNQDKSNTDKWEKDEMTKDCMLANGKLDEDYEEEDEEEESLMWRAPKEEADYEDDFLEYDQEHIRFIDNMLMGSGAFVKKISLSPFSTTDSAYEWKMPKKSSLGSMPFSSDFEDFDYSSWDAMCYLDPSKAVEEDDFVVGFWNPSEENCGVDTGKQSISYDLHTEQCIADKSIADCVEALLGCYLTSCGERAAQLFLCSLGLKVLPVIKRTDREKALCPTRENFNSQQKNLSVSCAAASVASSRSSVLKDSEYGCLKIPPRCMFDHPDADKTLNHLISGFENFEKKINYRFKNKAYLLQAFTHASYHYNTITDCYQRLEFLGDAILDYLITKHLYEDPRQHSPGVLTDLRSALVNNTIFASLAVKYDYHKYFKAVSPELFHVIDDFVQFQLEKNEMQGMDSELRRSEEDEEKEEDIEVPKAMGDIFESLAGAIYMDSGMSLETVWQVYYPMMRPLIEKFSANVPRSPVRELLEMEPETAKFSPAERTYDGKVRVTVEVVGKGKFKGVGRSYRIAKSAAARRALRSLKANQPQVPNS
Method: as §1, §2

[3] = label: 5'-32P on one strand, perfect duplex with 2-nt 3' overhangs on both ends

Binder	Kd relative to full-length Dicer (fold) ([1]; label: 5'-32P, hairpin)	Kd relative to full-length Dicer (fold) ([2]; label: 5'-32P, hairpin)	Kd relative to full-length Dicer (fold) [1, 3]	Kd relative to full-length Dicer (fold) [2, 3]
B1	≤ 3 fold of full-length Kd (30 nM)	≤ 3 fold of full-length Kd (30 nM)	–	–
B2	–	–	≤ 3 fold of full-length Kd (75 nM)	≤ 3 fold of full-length Kd (75 nM)
